The results in this text go back to patent US20160199473A1 (Johns Hopkins, published 2016).

Assay [1] concerns the target T1, HLA-A2 (HLA-A*0201 allele) on T2 cells (human).
T1 construct: whole, on cells; MHC class I molecule on the surface of T2 cells; also called T2-A2 cells
Briefly: T2 binding assay, flow cytometry with W6/32 (FIG. 1A). The source says:
(§1) Peptide pulsed cells were stained with an unlabeled mouse anti-HLA class I molecule monoclonal antibody W6/32 and a goat-anti-mouse FITC-labeled IgG2a secondary antibody. FIG. 1E. T2 cells genetically modified to express A3 and pulsed with either: Mesothelin A1309-318 binding peptide (green line), PSCA A399-107 (pink line), A35-13 (blue line), A314-22 (orange line), A3109-117 (purple line), A343-51 (red line), and PSCA A320-28 (yellow line). Peptide pulsed cells were stained with an unlabeled mouse anti-human HLA-A3 specific monoclonal antibody GAPA3 and a FITC-labeled IgG2a secondary antibody. FIG. 1F. T2 cells genetically modified to express A24 and pulsed with either: Mesothelin A1309-318 peptide (green line), PSCA A2476-84 (pink line), PSCA A24108-116 (blue line), PSCA A2499-107 (orange line), PSCA A24109-117 (purple line), and PSCA A2477-85 (red line). Peptide pulsed cells were stained with an unlabeled pan-HLA antibody W6/32 and a FITC-labeled IgG2a secondary antibody.
(§2) Binding of these epitopes to their respective HLA class I molecule was tested by pulsing TAP deficient T2 cells that expressed the corresponding HLA class I molecule (T2-A2, T2-A3, or T2-A24 cells). […]
(§3) Materials and Methods: Peptide/MHC binding Assays. […] Peptide binding was determined by FACS (Beckon Dickenson, San Jose, Calif.) analysis.
Background: Flow cytometry measures light scatter and fluorescence of single cells or particles in a stream.

Assay [2] addresses T2, HLA-A3 (HLA-A301 allele) on T2-A3 cells (human).
T2 construct: whole, on cells; MHC class I molecule on the surface of T2-A3 cells
The assay can be described thus: T2 binding assay, flow cytometry with GAPA3 (FIG. 1E).
Description: as §1
(§4) Binding of these epitopes to their respective HLA class I molecule was tested by pulsing TAP deficient T2 cells that expressed the corresponding HLA class I molecule (T2-A2, T2-A3, or T2-A24 cells). […] Binding of T2 cells pulsed with two candidate mesothelin derived HLA-A3 and two candidate HLA-A24 epitopes are shown in FIG. 1B and FIG. 1C, respectively. A similar binding experiment was done with the PSCA derived peptides for HLA-A2, HLA-A3, and HLA-A24. (FIG. 1D, FIG. 1E and FIG. 1F).
(§5) Materials and Methods: Peptide/MHC binding Assays. T2 cells expressing the HLA molecule of interest were resuspended in AimV serum free media (Gibco) to a concentration of 2.5×10⁵ cells/ml and pulsed with 100-200 micrograms of peptide at room temperature overnight. Pulsing at room temperature allows for optimizing the number of empty HLA molecules available for binding each epitope (30). The cells were washed and resuspended at 1×10⁵ cells/ml. Peptide binding was determined by FACS (Beckon Dickenson, San Jose, Calif.) analysis.

Assay [3] concerns the target T1, HLA-A2 (HLA-A*0201 allele) on T2 cells. The assay can be described thus: T2 binding assay, flow cytometry with W6/32 (FIG. 1D).
Description: as §1, §4, §5

Assay [4] shares this target. Briefly: T2 peptide/MHC binding assay, flow cytometry with W6/32.
Description: as §1, §2, §3

The target of assay [5] is T2, HLA-A3 (HLA-A301 allele) on T2-A3 cells. The assay can be described thus: T2 binding assay, flow cytometry with GAPA3 (FIG. 1B).
Description: as §1, §2, §3

B1: Mesothelin A2(530-538) (peptide)
peptide: VLPLTVAEV
notes: Synthetic nonamer from mesothelin; legends print the position as 530-539; also called Mesothelin A2530-539; MesoA2(530-539)
B1: in assay [1], the binding result is reported as “binds”.

B2: PSCA (43-51) peptide QLGEQCWTA (peptide)
peptide: QLGEQCWTA
notes: Synthetic nonamer from prostate stem cell antigen; also called PSCA A3(43-51); PSCA A243-51
As for B2, the binding result in assay [2] and in assay [3] was “binds” each time.

B3: Mesothelin A1309-318 binding epitope (EIDESLIFY) (peptide)
peptide: EIDESLIFY
notes: also called Mesothelin A1309-318 peptide
Consider B3, for which, in assay [4], the binding result is recorded as “no binding”.

B4: PSCA (99-107) peptide ALQPAAAIL (peptide)
peptide: ALQPAAAIL
notes: Synthetic nonamer from prostate stem cell antigen; also called PSCA A3(99-107); PSCA A24(99-107)
As for B4, the binding result in assay [2] was “binds”.

B5: Mesothelin A3(83-92) (peptide)
peptide: ELAVALAQK
notes: Synthetic nonamer from mesothelin; printed range spans ten positions; also called MesoA3(83-92)
As for B5, in assay [5], the binding result is recorded as “binds”.

B6: PSCA (108-116) peptide ALLPALGLL (peptide)
peptide: ALLPALGLL
notes: Synthetic nonamer from prostate stem cell antigen; also called PSCA A2(108-116); PSCA A24(108-116)
B6: the binding result in assay [3] is recorded as “binds”.

B7: PSCA (20-28) peptide ALLCYSCKA (peptide)
peptide: ALLCYSCKA
notes: Synthetic nonamer from prostate stem cell antigen; also called PSCA A3(20-28); PSCA A320-28
With B7, the binding result in assay [2] is listed as “binds”.

B8: Mesothelin A2(20-28) (peptide)
peptide: SLLFLLFSL
notes: Synthetic nonamer from mesothelin; legends print the position as 20-29; also called Mesothelin A220-29; MesoA2(20-29)
Consider B8, for which the binding result in assay [4] is listed as “binds”.

B9: Mesothelin A3(225-234) (peptide)
peptide: ALQGGGPPY
notes: Synthetic nonamer from mesothelin; printed range spans ten positions; also called MesoA3(225-234)
Regarding B9, in assay [5], the binding result was “binds”.

B10: PSCA (5-13) peptide LLALLMAGL (peptide)
peptide: LLALLMAGL
notes: Synthetic nonamer from prostate stem cell antigen; also called PSCA A2(5-13); PSCA A3(5-13)
Consider B10, for which the binding result in assay [2] and in assay [3] was “binds” throughout.

B11: PSCA (109-117) peptide LLPALGLLL (peptide)
peptide: LLPALGLLL
notes: Synthetic nonamer from prostate stem cell antigen; also called PSCA A3(109-117); PSCA A24(109-117)
Regarding B11, the binding result in assay [2] was “binds”.

B12: PSCA (14-22) peptide ALQPGTALL (peptide)
peptide: ALQPGTALL
notes: Synthetic nonamer from prostate stem cell antigen; also called PSCA A2(14-22); PSCA A3(14-22)
As to B12, the binding result in assay [2] and in assay [3] was “binds” throughout.
